Positions count from the first letter of the chain named.
T1: I-CreI heterodimer HBB8.3_I3 / HBB8.4_B4 (Chlamydomonas reinhardtii, UniProt P05725;P05725 SEQ:1-167,SEQ:1-167)
T1 chain 1: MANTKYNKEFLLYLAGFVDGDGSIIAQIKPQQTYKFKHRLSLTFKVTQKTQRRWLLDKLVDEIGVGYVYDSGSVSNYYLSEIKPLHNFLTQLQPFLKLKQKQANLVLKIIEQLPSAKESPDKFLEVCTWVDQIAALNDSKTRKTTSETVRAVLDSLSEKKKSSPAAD
T1 chain 2: T1 chain 1 with G20S, Q31N, T33S, Y34T, S41Q, K45D, L55F, Y69A, N76K, Y78R

T2: I-CreI heterodimer HBB8.3_L3 / HBB8.4_A4 (Chlamydomonas reinhardtii, UniProt P05725;P05725 SEQ:1-167,SEQ:1-167)
T2 chain 1: T1 chain 1 with G20S, L55F, Y78Q
T2 chain 2: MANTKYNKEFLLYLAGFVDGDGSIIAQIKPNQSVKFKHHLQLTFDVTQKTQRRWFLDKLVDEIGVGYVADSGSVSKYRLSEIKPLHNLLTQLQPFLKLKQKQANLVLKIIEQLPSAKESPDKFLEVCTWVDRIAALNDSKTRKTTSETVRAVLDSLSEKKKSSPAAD

T3: I-CreI heterodimer HBB8.3_C3 / HBB8.4_D4 (Chlamydomonas reinhardtii, UniProt P05725;P05725 SEQ:1-167,SEQ:1-167)
T3 chain 1: T1 chain 1 with Q31N, T33S, Y34G, R39K, L55F, I133V
T3 chain 2: T2 chain 2 with R132Q

T4: I-CreI heterodimer HBB8.3_K3 / HBB8.4_B4 (Chlamydomonas reinhardtii, UniProt P05725;P05725 SEQ:1-167,SEQ:1-167)
T4 chain 1: T1 chain 1 with G20S, L55F, Y78I
T4 chain 2: T2 chain 2 with G20S, V34T, H39R, L88F, R132Q

T5: I-CreI heterodimer HBB8.3_I3 / HBB8.4_D4 (Chlamydomonas reinhardtii, UniProt P05725;P05725 SEQ:1-167,SEQ:1-167)
T5 chain 1: T1 chain 1
T5 chain 2: T2 chain 2 with R132Q

T6: I-CreI heterodimer HBB8.3_K3 / HBB8.4_D4 (Chlamydomonas reinhardtii, UniProt P05725;P05725 SEQ:1-167,SEQ:1-167)
T6 chain 1: T1 chain 1 with G20S, L55F, Y78I
T6 chain 2: T2 chain 2 with R132Q

T7: I-CreI heterodimer HBB8.3_C3 / HBB8.4_C4 (Chlamydomonas reinhardtii, UniProt P05725;P05725 SEQ:1-167,SEQ:1-167)
T7 chain 1: T1 chain 1 with Q31N, T33S, Y34G, R39K, L55F, I133V
T7 chain 2: T2 chain 2 with G20S, H39R, L88F, R132Q

T8: I-CreI heterodimer HBB8.3_A3 / HBB8.4_C4 (Chlamydomonas reinhardtii, UniProt P05725;P05725 SEQ:1-167,SEQ:1-167)
T8 chain 1: T1 chain 1 with K45Q, L55F, L59Q, Y69A, Y78R, F88L
T8 chain 2: T2 chain 2 with G20S, H39R, L88F, R132Q

T9: I-CreI heterodimer HBB8.3_I3 / HBB8.4_C4 (Chlamydomonas reinhardtii, UniProt P05725;P05725 SEQ:1-167,SEQ:1-167)
T9 chain 1: T1 chain 1
T9 chain 2: T2 chain 2 with G20S, H39R, L88F, R132Q

T10: I-CreI heterodimer HBB8.3_D3 / HBB8.4_A4 (Chlamydomonas reinhardtii, UniProt P05725;P05725 SEQ:1-167,SEQ:1-167)
T10 chain 1: T1 chain 1 with G20S, Q31N, T33S, Y34G, R39K, L55F, E118G
T10 chain 2: T2 chain 2

T11: I-CreI heterodimer HBB8.3_D3 / HBB8.4_D4 (Chlamydomonas reinhardtii, UniProt P05725;P05725 SEQ:1-167,SEQ:1-167)
T11 chain 1: T1 chain 1 with G20S, Q31N, T33S, Y34G, R39K, L55F, E118G
T11 chain 2: T2 chain 2 with R132Q

T12: I-CreI heterodimer HBB8.3_I3 / HBB8.4_A4 (Chlamydomonas reinhardtii, UniProt P05725;P05725 SEQ:1-167,SEQ:1-167)
T12 chain 1: T1 chain 1
T12 chain 2: T2 chain 2

B1: HBB8 (dsDNA)
DNA 1: CTGACTCCTGTGGAGAAGTCTG
DNA 2: CAGACTTCTCCACAGGAGTCAG
B2: HBB6 (dsDNA)
DNA 1: CTGACTCCTGAGGAGAAGTCTG
DNA 2: CAGACTTCTCCTCAGGAGTCAG

Legend:
Experiment in all cases: cell_activity; CHO extrachromosomal LacZ assay
[1] = target: T1, I-CreI heterodimer HBB8.3_I3 / HBB8.4_B4
[2] = target: T2, I-CreI heterodimer HBB8.3_L3 / HBB8.4_A4
[3] = target: T3, I-CreI heterodimer HBB8.3_C3 / HBB8.4_D4
[4] = target: T4, I-CreI heterodimer HBB8.3_K3 / HBB8.4_B4
[5] = target: T5, I-CreI heterodimer HBB8.3_I3 / HBB8.4_D4
[6] = target: T6, I-CreI heterodimer HBB8.3_K3 / HBB8.4_D4
[7] = target: T7, I-CreI heterodimer HBB8.3_C3 / HBB8.4_C4
[8] = target: T8, I-CreI heterodimer HBB8.3_A3 / HBB8.4_C4
[9] = target: T9, I-CreI heterodimer HBB8.3_I3 / HBB8.4_C4
[10] = target: T10, I-CreI heterodimer HBB8.3_D3 / HBB8.4_A4
[11] = target: T11, I-CreI heterodimer HBB8.3_D3 / HBB8.4_D4
[12] = target: T12, I-CreI heterodimer HBB8.3_I3 / HBB8.4_A4

Binder	activity [1] [absorbance units]	activity [2] [absorbance units]	activity [3] [absorbance units]	activity [4] [absorbance units]	activity [5] [absorbance units]	activity [6] [absorbance units]	activity [7] [absorbance units]	activity [8] [absorbance units]	activity [9] [absorbance units]	activity [10] [absorbance units]	activity [11] [absorbance units]	activity [12] [absorbance units]
B1	2.26	2.32	0.72	2.06	1.57	1.93	2.62	1.56	2.42	1.53	2	1.15
B2	1.88	1.96	0.37	1.57	0.12	1.63	1.87	0.68	2.36	1.23	1.09	0.45

Source: patent US20100229252, “MEGANUCLEASE VARIANTS CLEAVING A DNA TARGET SEQUENCE FROM THE HUMAN HEMOGLOBIN BETA GENE AND USES THEREOF” (CELLECTIS, published 2010)
